{"source": "paper doi:10.64898/2025.12.09.693212", "binders": {"B1": {"name": "51 bp dsDNA (dsDNA)", "DNA 1": "TATTTTCTTGTTCTTTTACATCAACACAATGTGACCATTACCTGGTTATCA", "DNA 2": "TGATAACCAGGTAATGGTCACATTGTGTTGATGTAAAAGAACAAGAAAATA"}}, "target": "T1, yeast topo II (full-length) (Saccharomyces cerevisiae, UniProt P06786 1-1428)", "T1 sequence": "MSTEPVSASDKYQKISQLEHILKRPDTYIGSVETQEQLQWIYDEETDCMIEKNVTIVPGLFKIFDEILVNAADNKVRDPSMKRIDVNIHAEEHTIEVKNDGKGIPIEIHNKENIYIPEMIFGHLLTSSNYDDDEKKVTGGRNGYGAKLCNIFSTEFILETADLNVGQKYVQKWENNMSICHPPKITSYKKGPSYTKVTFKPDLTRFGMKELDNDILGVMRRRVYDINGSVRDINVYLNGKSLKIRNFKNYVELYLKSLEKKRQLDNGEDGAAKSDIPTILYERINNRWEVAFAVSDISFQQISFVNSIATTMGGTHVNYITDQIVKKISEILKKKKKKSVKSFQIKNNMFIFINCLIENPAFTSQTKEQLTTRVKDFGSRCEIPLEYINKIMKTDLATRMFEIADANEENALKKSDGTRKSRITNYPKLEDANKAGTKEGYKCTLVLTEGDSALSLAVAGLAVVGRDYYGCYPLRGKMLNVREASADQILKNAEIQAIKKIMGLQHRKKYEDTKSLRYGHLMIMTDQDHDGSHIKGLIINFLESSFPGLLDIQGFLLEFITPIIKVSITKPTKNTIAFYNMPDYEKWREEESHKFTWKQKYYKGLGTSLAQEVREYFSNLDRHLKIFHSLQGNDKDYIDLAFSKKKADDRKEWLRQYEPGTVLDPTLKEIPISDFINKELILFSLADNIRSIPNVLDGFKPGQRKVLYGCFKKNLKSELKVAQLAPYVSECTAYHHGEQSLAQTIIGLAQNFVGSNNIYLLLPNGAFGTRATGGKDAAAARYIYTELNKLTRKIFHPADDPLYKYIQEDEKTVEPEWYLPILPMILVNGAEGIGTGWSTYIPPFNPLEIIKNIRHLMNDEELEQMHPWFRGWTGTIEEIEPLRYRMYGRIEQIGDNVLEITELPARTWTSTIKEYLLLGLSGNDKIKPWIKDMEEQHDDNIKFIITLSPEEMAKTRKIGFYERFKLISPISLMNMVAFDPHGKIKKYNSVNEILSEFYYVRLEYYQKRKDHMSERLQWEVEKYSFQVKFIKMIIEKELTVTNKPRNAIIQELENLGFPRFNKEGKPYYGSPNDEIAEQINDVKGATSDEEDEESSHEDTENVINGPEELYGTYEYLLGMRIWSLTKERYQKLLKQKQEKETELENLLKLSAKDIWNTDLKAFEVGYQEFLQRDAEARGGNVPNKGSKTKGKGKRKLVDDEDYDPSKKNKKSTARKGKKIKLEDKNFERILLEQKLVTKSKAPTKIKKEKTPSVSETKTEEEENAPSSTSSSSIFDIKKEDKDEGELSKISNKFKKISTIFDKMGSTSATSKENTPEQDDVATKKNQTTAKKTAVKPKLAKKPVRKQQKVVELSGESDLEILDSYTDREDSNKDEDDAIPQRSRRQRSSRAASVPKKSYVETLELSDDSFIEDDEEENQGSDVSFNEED", "assay": "EMSA"}
{"binder": "B1", "values": [{"measurement": "Kd", "value": "~50", "unit": "nM"}]}
